# Values quoted from earlier work in article PMC3530658.
# Target: FEN-1 (Homo sapiens) (UniProt P39748)
# Chain of UniProt P39748 (P39748 whole entry): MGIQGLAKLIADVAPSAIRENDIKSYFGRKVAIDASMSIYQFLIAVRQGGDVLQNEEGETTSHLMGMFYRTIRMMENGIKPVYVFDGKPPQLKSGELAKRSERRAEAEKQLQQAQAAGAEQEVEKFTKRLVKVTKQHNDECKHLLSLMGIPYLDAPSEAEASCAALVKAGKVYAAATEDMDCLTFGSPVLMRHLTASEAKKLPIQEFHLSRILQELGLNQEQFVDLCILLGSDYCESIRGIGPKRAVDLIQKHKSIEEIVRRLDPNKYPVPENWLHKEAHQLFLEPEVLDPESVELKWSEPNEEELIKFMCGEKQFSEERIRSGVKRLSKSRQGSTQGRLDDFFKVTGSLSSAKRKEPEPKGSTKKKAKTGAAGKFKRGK
substance,measurement,value
NEIL1 CTD (from UniProt Q96FI4),Kd,200 nM
